Source: the supplement of paper PMC12042874
± gives the uncertainty stated by the source.

Experiment: amyloid nucleation score (Sup35N fusion, yeast selection) (log enrichment); library NNK2; higher = more nucleation; inactive = no reads after selection
In short: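 The nucleation score is the DiMSum log enrichment of output over input reads, centred on the mode score of non-aggregating sequences. Only sequences with 100 or more input reads were scored, using Illumina sequencing of input and output plasmid inserts. Psi-negative yeast expressing Sup35N fused to peptides of 20 random codons were induced 24 hours with 100 μM copper sulfate and grown 7 days at 30°C on medium lacking adenine and uracil.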

Substance | amyloid nucleation score
SPLHKKVYKRLRLTSDTRQI | -0.516 ± 0.55
AISVKKWSFHEKKRNTMLT | -0.027 ± 0.28
GKCFIWCSMGIWLGVCDQSA | 3.59 ± 0.089
WYWHPCTIFL | 5.46 ± 0.038
AINLGSDYKWSGMAFVKG | 0.285 ± 1
DSVVLGGYGGFAAHKTRVIF | 0.213 ± 0.43
VHSNCSLNGPCMPMCVRRRW | 0.302 ± 0.56
TTDCSNDLSAILVCLSHGAL | -0.19 ± 1
KNFSCVN | 0.706 ± 0.74
SREGLCCNIVYA | -0.45 ± 0.37
MKAHVVVTLSCRYNLYGAPH | 4.52 ± 0.054
TVSRTVCVASYCLSSEKTSG | -0.899 ± 0.31
CCNQEVLD | 0.575 ± 0.66
ALYLMTFPSRDLIRACEEA | 0.678 ± 0.56
QRVMHTYYVS | 0.073 ± 0.24
TLRSETMSDWYSRLHGFVFK | 0.988 ± 0.52
PFCCLWFGLMHSSGVFRFMG | inactive
TRAFLIIRYVKLDTNFVI | 2.19 ± 0.064
KAKIATKVSLFLLSGYVDLQ | -0.356 ± 0.65
FVGTCSHYRGCSVCFITDLL | 6.135 ± 0.057
GRRLSGILRRDGGANGCHRR | 0.098 ± 0.42
EVSSGTCFGTS | 0.084 ± 0.42
NIAKSEILRIWNWW | inactive
TTMIAVVRFTRD | 2.07 ± 0.29
YSLVLYWMWNCYRNRLDSGF | -0.185 ± 0.63
NKDRGGRYSICRNYANPFVA | 0.034 ± 0.29

Substance | amyloid nucleation score
FTTFRR | -0.854 ± 0.55
HRYEKSAHTVVWSIMVFS | 0.033 ± 0.45
YPCPAVVCSYAA | 0.705 ± 0.44
VCVFTDLGCRY | -0.493 ± 1.1
ILANFFCGDRNCL | 7.128 ± 0.036
YWTNPYEMFISHYNKVFAFF | -0.436 ± 1.1
ISETLASSVWRRCVSCGYVM | 3.93 ± 0.075
RQALVRILFSSSRIGGM | -0.857 ± 0.44
LTVYVFSDFSRATVGPSRWL | 0.238 ± 0.48
SGVHNYSARVG | -0.442 ± 0.46
SCRVME | 0.292 ± 0.2
APFLGRLEVRV | 0.563 ± 0.37
DVAYRVVDKRIQRVAKCMYM | -0.194 ± 0.6
SMFSRRNIQKSCFCYWNRLC | -0.418 ± 1.1
LDALVSWSLECGWYESCWSR | -0.025 ± 0.32
NNTNIECSWWIYVWSRHNNR | 5.99 ± 0.061
KLGLSSIHFSGSMFVRCTFC | 4.503 ± 0.041
SNNMFWFLNYYVGIYMWISP | -1.21 ± 0.75
MFGGPGGGRDRVMVGDVLLG | 0.295 ± 1
IVGVSFKSVNTNRIDPVFLF | inactive
CNIAPASKFSIIMPRR | 3.74 ± 0.11
VFFNLDSWSSKVCDSKLMVM | -0.373 ± 0.54
GHLRYTIDTGTTSGSSDLMS | -0.842 ± 0.63
RLQSSRSGVKAL | 0.208 ± 0.8
KLTFTVMYTFCKVLSRDVAC | 3.1 ± 0.1
PYLFMESMKD | 0.117 ± 0.79

Substance | amyloid nucleation score
SLCLGHYFHGTAYNWVVLYI | 0.213 ± 0.8
DSLYWSRCSSFRTKQEVSDM | 0.907 ± 0.3
CWGGISSALRQ | 0.698 ± 0.8
ISGVVFSTTRLLQFDGCRVG | 1.31 ± 0.52
INNLRSCLSMY | 0.562 ± 0.57
RVMYGGCFHSRKRASVPYLY | -0.405 ± 0.76
DYFFPWENSGCIRRSLTVG | -1.35 ± 0.41
VSRKV | 0.476 ± 0.23
TVSKDDMTALVSAIMASNRW | 1.06 ± 0.32
RLGEWGFNRLVWFNKEAVCS | 0.495 ± 0.47
ARHMHSASYNYTGTRSYSFY | 5.56 ± 0.091
YGDSWLFCYVE | -1.12 ± 0.64
RSLYVVFWIAGFEWGEIRVA | 0.822 ± 0.26
DYPSKKGVVPPRLGISDKNV | 2.86 ± 0.049
IIYNKSW | 2.77 ± 0.094
SCLLSL | 0.506 ± 0.45
IWSYSSFGVD | -0.064 ± 1.1
RCVWINVGCSPILIGYAAHY | 8.728 ± 0.03
CDKQRFSRF | inactive
NWPMGGHVYKHRVSHSG | 0.095 ± 0.53
CAWFLTRWTVLSDLEGFY | -1.35 ± 0.49
DVIVRLFVPYLVV | -0.199 ± 0.44
NWKANYEFVRLIVVLLSSRR | 0.202 ± 0.64
AVPGVC | 0.72 ± 0.26
DFRKNANRLLRIYGVMRECA | -0.016 ± 0.19
WCSSKSLADSGRVMGANVYI | -1.02 ± 0.78

Substance | amyloid nucleation score
VLSTWWVSYAGTVFVRSEGT | 3.58 ± 0.14
GTFSCGSGEI | 0.534 ± 0.8
VNKSSERNESIGRFRTCYRR | 0.345 ± 0.8
ASKSYIITSSCRASLTVSSL | inactive
YYFFCVNGGHDMGAILNMLW | 6.94 ± 0.086
VPNYLCGDTLPEYYETPPDH | 0.224 ± 0.4
FGRRLQGRHINSNDQWGRQA | 0.339 ± 0.61
RYYGRPFRVLYRWSVREYYT | 4.395 ± 0.04
QGAVLTL | -1.12 ± 0.76
TGNTFIPSLFICRIEGSTSA | 0.506 ± 0.44
SGFEDVHAVVRFLIGVQYGG | -0.515 ± 1.1
RLVTWGISQNRLAQLY | -0.001 ± 0.33
CNDGGENGWKCTGR | 0.497 ± 0.57
HGLEVVQMASSLELQARKKA | 0.049 ± 0.34
TPTWESNQVL | 0.502 ± 0.65
LEGGGGFSRAL | -0.651 ± 1.1
VVAPTKLLFKLPMALYVFVG | -0.299 ± 0.34
KSHSDSFDYW | 0.233 ± 0.74
YCYVCDVNVYVYLTAIGNKF | 7.43 ± 0.085
VKFNDFTHKNWY | 0.058 ± 0.74
DETYHKYDRFWLGVMSFGFY | -0.787 ± 0.34
SRSWTLKFRLGGNVKQYCTW | 5.72 ± 0.091
PDPVPM | 0.632 ± 0.31
IRFVESSQMKVLPRGGVGLN | inactive
VTIGLNDFLTWDRWFYVFYG | -0.873 ± 0.25
ASGLLPDLDVEKEDRCGIYE | 0.859 ± 0.52

Substance | amyloid nucleation score
IEQVRDECHYTDVATLIEMM | 0.675 ± 0.24
GYYMRLS | inactive
RRNMVSWVSDDEQFSDKPLA | 0.121 ± 0.4
FYPVFKSMLVMAGVTRHLAR | -0.487 ± 0.26
IIIGFWVCWNSIASWSIVGR | -1.78 ± 1.1
RELCVFASCAFVGLLVESWK | 6.16 ± 0.078
YWGIRVCSDFGIPEFRTS | 2.05 ± 0.12
GACVAKATF | 0.616 ± 0.19
MAYSGKVLFHVSDIVVWGKL | 5.9 ± 0.086
TWGVLFAYSIEDCVGINYLG | 0.73 ± 0.18
TGQSKDNQDSNMGVICLFYS | 4.389 ± 0.04
RYVGRDR | inactive
HNSCVSITSKLQCPLRTVSG | 0.252 ± 0.65
FNISSNVICDNFRDPLVESD | -1.87 ± 0.78
LGKFEA | inactive
KPAERLFKCRSTE | 0.014 ± 0.49
SLHLRRYIFNT | 7.339 ± 0.059
MEAIVERIGYITYVLNFKER | inactive
VWSPYKTV | -0.101 ± 1.1
FSLWSLERLKPIGLSSRMSG | 3.45 ± 0.16
NRGWSFKLQWHYSLSYTS | 4 ± 0.084
LWFDLSSTLPQM | 0.396 ± 0.62
VVAMDRCLQPVFLHLLSNNF | inactive
